Biological target: the molecule itself
Experiment: two-hybrid; bacterial adenylate cyclase two-hybrid (BACTH) in E. coli BTH101 (cya-); TM sequences fused to T18 and T25 fragments of CyaA behind an OmpA signal sequence; read out on MacConkey indicator plates and by beta-galactosidase activity, normalised to GpA-GpA as 100%

B1: Neuropilin 1 transmembrane domain (NRP1 TM), BACTH fusion (domain or fragment, human)
chain: ILITIIAMSALGVLLGAVCGVVLYRKR
notes: not part of NRP1; Modified pKTN25 and pUT18 plasmids; also called NRP1 TM domain; source: bacterial two-hybrid fusion (BACTH), E. coli BTH101 (cya-), cotransformed plasmids; not shown: T25 or T18 fragment of Bordetella pertussis adenylate cyclase CyaA, C-terminal, kept
interaction propensity (beta-galactosidase activity) relative to GpA-GpA: ~50%
